# From publication PMC11306256
# B1: GST-tagged recombinant Xenopus APE1, wild type [Xenopus laevis] / itself (parent)
# chain: MPKRGKKEEVCAAEPQEDGNEPEVKKGKKGAGKAAKEPEPVVLYEDAPDNVTSADGKKYTLKISSWNVDGIRAWIKKQGLNWVREEDPHIMCLQEIKCAEKLLPPDVKDMPEYPHKYWACPDEKEGYSGVAMLCKDKPLNVTYGIGIEEHDKEGRVITAEFDSFFVIAAYIPNSSRGLVRLDYRQRWDVDFRAYLKGLDSKKPLILCGDLNVAHQEIDLKNPKTNKKTPGFTPQERQGFGELLAEGYLDSFRELYPDKPSAYTFWTYMMNARAKNVGWRLDYFVLSKALRPALCDCKIRSKVMGSDHCPITLLMAI
# Variants of: B1
# Assay: sucrose density gradient sedimentation, quantified immunoblot (self-association / oligomerization)
# Conditions: with itself; fraction #3 (low-mass peak, co-sediments with 75kD Conalbumin); n = 3; parent: 17; read off a plot
row,Variant,percent of protein in gradient fraction [%]
1,MPKRGKKEEVCAAEPQEDGNEPEVAAGKKGAGAAAKEPEPVVLYEDAPDNVTSADGKKYTLKISSWNVDGIRAWIKKQGLNWVREEDPHIMCLQEIKCAEKLLPPDVKDMPEYPHKYWACPDEKEGYSGVAMLCKDKPLNVTYGIGIEEHDKEGRVITAEFDSFFVIAAYIPNSSRGLVRLDYRQRWDVDFRAYLKGLDSKKPLILCGDLNVAHQEIDLKNPKTNKKTPGFTPQERQGFGELLAEGYLDSFRELYPDKPSAYTFWTYMMNARAKNVGWRLDYFVLSKALRPALCDCKIRSKVMGSDHCPITLLMAI [chain 1 K25A K26A K33A],23

# Same assay, conditions: with itself; fraction #7 (high-mass oligomer peak of WT); n = 3; parent: 16; read off a plot
row,Variant,percent of protein in gradient fraction [%]
1,MPKRGKKEEVCAAEPQEDGNEPEVAAGKKGAGAAAKEPEPVVLYEDAPDNVTSADGKKYTLKISSWNVDGIRAWIKKQGLNWVREEDPHIMCLQEIKCAEKLLPPDVKDMPEYPHKYWACPDEKEGYSGVAMLCKDKPLNVTYGIGIEEHDKEGRVITAEFDSFFVIAAYIPNSSRGLVRLDYRQRWDVDFRAYLKGLDSKKPLILCGDLNVAHQEIDLKNPKTNKKTPGFTPQERQGFGELLAEGYLDSFRELYPDKPSAYTFWTYMMNARAKNVGWRLDYFVLSKALRPALCDCKIRSKVMGSDHCPITLLMAI [chain 1 K25A K26A K33A],6
